The text below walks through data of publication PMC4882579, “Disclosing the essentiality of ribose-5-phosphate isomerase B in Trypanosomatids” (Scientific Reports, 2016).

Substrate in the series: O=C(CO)[C@H](O)[C@H](O)COP(=O)(O)O
The series can be described thus: purified protein, by the assay type. Set-up: Recombinant RPIB isomerase kinetics, R5P to Ru5P (direct) or Ru5P to R5P (reverse). From the text: LiRPIB and LmRPIB recombinant proteins, containing a 6-histidine N-terminal tag, were expressed in Escherichia coli and purified by affinity chromatography under native conditions. Coomassie blue is represented in Fig. 1b, showing that both proteins have the predicted MW for the monomer (LiRPIB ~20.83, LmRPIB ~20.78 kDa). […] Additionally, recombinant LiRPIB was used to immunise rabbits to produce polyclonal anti-LiRPIB antibodies. Those antibodies recognise the recombinant protein and a single band in an extract of L. infantum promastigotes with the expected MW (~18.6 kDa, [web.expasy.org/protparam]) (Fig. 1c). […] The reverse reaction, which generates R5P, seems to be favoured, with both enzymes presenting lower Km values and higher vmax and kcat.

B1: LmRPIB (Leishmania major) (protein)
chain: MSKRVALGCDHAAYAAHREIMDMISASGAVSKVMYMGPSSDTSVDYPDYAAQVCEAILKGEADAGILVCGTGIGMSIAANKFRGIRAALCYDHVTAQLSRQHNNAHILCIGVRTSGMEIIRDIITTFLTTEPLAEGRHSNRVDKITVIEEEQMKDEQRCCFSGCGGRKEEGK
B1: the Km was 3010 ± 540 µM, the Vmax stood at 1040 µM/min and the catalytic constant (kcat) is 128 ± 7.33 s⁻¹.

B2: LiRPIB (Leishmania infantum) (protein)
chain: MPKRVALGCDHAAYATHQEIMDMVNASGAASKVMYMGPSSDTSVDYPDYAAQVCEAILKGEADTGILVCGTGIGMSIAANKFRGIRAALCYDHVTAQLSRQHNNAHILCIGVRTSGMEVIRDIIETFLTTEPLAEGRHGNRVDKITVIEEEQMKDEQRWCFSGCGGLKEEGK
For B2, the Km came out at 2820 ± 300 µM, the Vmax is 930 µM/min and the kcat turned out to be 115 ± 3.86 s⁻¹.

By Km is commonly meant the concentration of substrate that gives half-maximal velocity. For orientation: Vmax means the top rate of the reaction or transport when substrate is in excess. Usually kcat stands for the number of substrate molecules converted per active site and unit of time at saturation.
